Consider 17 sequences from a protein production outcome set (Wang et al. 2014).

A short description of this series: label from the status in PepcDB records.
On to “MKKSKHLKRPYLKRSHLKHSDKASSFKGLLKKEDNVISLENFKPKESEDLLENFSNKKDMQELLGLLNQFILQSYKVEKEFKDYKALYEWVIEILPQAIWVVNENGSFFYKNSLANQSHEVFNKAKLENFNTEIEHENKSYLVQQNSIQGKQIITATDISAQKRQERLASMGKISAHLAHEIRNPVGSISLLASVLLKHANEKTKPIVVELQKALWRVERIIKATLLFSKGIQANRTKQSLKTLESDLKEALNCYTYSKDIDFLFNFSDEEGFFDFDLMGIVLQNFLYNAIDAIEALEESEQGQVKIEAFIQNEFIVFTIIDNGKEVENKSALFEPFETTKLKGNGLGLALSLQVVKAHEGSIALLENQEKTFEIKILNAS”, for which the protein production result is given as “failed”. Take “MKKTLILILCLFLCTVSFARKRVKVACVGNSITYGIGVSDPDKESYPARLQQMLGEGYTVERFGKPGATLLNKGHRPFMQQKEFKDALAFAGDVVVIHLGVNDTDPRDWPNYRDFFIADYRALIDSFRVANPECRILIARLTPIADRHPRFESGTRDWHDEIQLAIETIAKYAQVQLIDFHAPLYPYPFMLPDAVHPDKEGAAVLAKTVYEGITGDFGGLQMPEIYTDNMVLQHGRLLTIQGKADAGEKVTVSIDRQKLQAVTGADGKWAVDVRPLKAGGPYTLTVSTEKRKLVYENVLAGEVWLCSGQSNMEFYLNWSATAAQDVPQAANSNIRFYDMKARWRTDAVEWDASVLDSLNHLQYYKDTRWTVCSPETAGNFSAVAYYFGKKLQDSLQVPVGLICNAIGGSPTEAWIDRSTLEYRFPAILRNWMQNDFIQDWVRGRAALNVKQSSNKLQRHPYEPCYLYESGIRPLEQFPVKGFIWYQGESNAHNREAHEKLFGLLVESWRKNWGDAELPFYFVQLSSIDRPSWTWFRDSQRRLMAEIPHTGMAVSSDRGDSLDVHPKQKREVGERLAAWALNKTYGYKNVIPSGPLYKSVVFSGGAAYISFDYAEELSTSDGKSLRTFEVAGDDGLFYPAQAVVENGKIKVWSDKVKEPETVRYGWQPFTRANLVNGAGLPASTFRAE”: the protein production result was “failed”.

For the sequence “MKKTPIVFILFLLNFICLGQADTTMLLSDKAVQIEGTDAVNDLYNFKFEKAEGYFLYLKSQHPNHPMPYFLMALSNWWKMMPYIDNNDYTNAYEKEFLYYIDQTIEKGEEQFKADDQNVEAAFFLCAAHGFKGRYFSENKGYVKAAFAGKSALHYLTYTKGKGDLNPEFLFGESIFNYYAEWIKEEYPLLKPLVGLFPKGDKAVGLAQLKECATNAFYTRIEAQYFLLRIYTNEENNSRAAYPYAKYLSENFPDNPYFQRVYARLSFELGYYAQCEKICYDINYKVNIEMPGYEVNTGRYAAYFLGRILYEKSDLEKSKFYLLKTAAFAESGNMNKMGYSLSAYYYLGMIEVKSQNYSEAEKFFLKVIDLGEDKQDNSAVYNYSYASYQLASVYEKQQNTKRAESFYKDAIKRVKKLDEKSYASTIKEITANSEAGLERLKQPKK”, the protein production entry is “failed”.

In the case of “MKKVKIFSIVLPLIYTSFMLYVTYKVYNGLRYRSLDLGIFTQSLYSLSEGKLFYNTVEFQLYEVHTHFGVHFQPILFLLTPLFLIKRDAYTLIIIQTLALGTSVYLAYKLAVKELGEKKGFALAILYSCNSSLISINVFEFHPVSLAVPLFLLAYKFLREESPLFYVISTLILLTKEDAFLGVLSITAWKILKEGLSVETLKKNKKIILFTILTLLYGIFTIKVVIPKFGGEYIYSNLYMEPRLDRRKLTYFLLFNLTFALLPLLNFFAILSLLPPWLECLLASRESQTMFGFHYPYMLVPLSFVISLDVAKKLDWKILRNLAILGVISSLITLPITNHLPKEQNPLVYPTVITPIPGKEASWEAIKITRELEGPIYTQPEFYPALATRLDVYVYPKNVKPKIILVNLNTYYGRRALERIKAFRVNLSEYKKVFEKDGVLIMVRKD”, the protein production result is on record as “failed”. Under “MKKWFPALLFSLCVSGESSAWNNIVFYSLGDVNSYQGGNVVITQRPQFITSWRPGIATVTWNQCNGPEFADGFWAYYREYIAWVVFPKKVMTQNGYPLFIEVHNKGSWSEENTGDNDSYFFLKGYKWDERAFDAGNLCQKPGEITRLTEKFDDIIFKVALPADLPLGDYSVKIPYTSGMQRHFASYLGARFKIPYNVAKTLPRENEMLFLFKNIGGCRPSAQSLEIKHGDLSINSANNHYAAQTLSVSCDVPANIRFMLLRNTTPTYSHGKKFSVGLGHGWDSIVSVNGVDTGETTMRWYKAGTQNLTIGSRLYGESSKIQPGVLSGSATLLMILP” stands “not failed”; under “MKLAMKLRTRLFLSISALITVALLGLLLGLVSVMQMARTQESLIQHNFAILDLGLKLRQNLGDQLVLMTGATRNPPELEKIQRQFEELLEEASAQDTQEDVRNGLEGTWVDYRRFIDALKQFGTDPRGIRGNPQLSESFDSLRNGLLNVHRKALENISSAEINSRDRALWIAGLLGLVGLAVLCIGFVTAHGIARRFGAPIEALAKAADRIGEGDYEVTLPISSAAEMNLLTRRFGIMAEALRQHQATNVDELLAGQQRLQAVLDSIDDGLLMIDRQGHLEHLNPVAQRQLGWDESRLGQSLGEALSRPELDEQLHLVLRGGTLERAPEDLAIDIDGESRLLTYSMTPVSHTKGHILGAVMVLHDVTEQRAFERVRSEFVLRASHELRTPVTGMHMAFGLLQERLHFAPESREADLLNTVTEEMQRLMQLINDLLNFSRYQNGLQKLKLAPCSIETLLEEARARYEGQAQEQEIVLMLDIQEPMPRLHADQSQLERVLDNLLDNALRHTPPNGLIRLQARRHGERAIISVEDNGEGIAYGQQGRIFEPFVQVGRKKGGAGLGLALCKEIVQLHGGRMGVYSRPGQGTQFYMALLL”, “failed”. Under “MKLATKKNGTRDGLLMVVSKDLTRCVPATEVFHPRNLAPTMQVALDNWEAVAPQLEEIYTALNNGTVAGFEEFEAHYCESPLPRAYQWADGSAYVNHVELVRKARGAEMPESFWTDPLMYQGGSDAFIGPCDNIEFASDEWGIDFEGEVAVVTGDVPMGASIAEAQESIRLIMLVNDVSLRGLIPAELAKGFGFFQSKPSSAFSPVAVTPDELGDEWYENKVHLPLVSTYNHKPFGRPNAGVDMTFDFADLIVHATKTRPLSAGAIIGSGTVSNKQGTDHGTSIEEGGVGYSCIAEVRMIETIRDGKPTTNFMSFGDSIKLEMFDVEGNTIFGAIDQQVSQYLKH” stands “failed”; under “MKLDDLNLFRQVVENGSYTAASRKTLIPVATITRRIQALEDSLDIRLLNRHARKLSLTEAGQKFYDECAPILATLVNTSEYLGEECRGAAGKLKIAAPSNLTKRMIQPILNKFMLLYPDISINLTMSNQPEQLDPTDWDIIFRVGKQRDSSLIARQIGSLEDILVASPSYLEKNSEPTHAQELHKHSLLKGNPLMRWRLTNKDGESVTITDAGRFEASELNVIRMACSNGLGITLMPDIMISQYLEEGSLIRVLSDWSANPRDIYMIYNYKDHQPEKVRLFIDFVSNHIPD”, “failed”. Under “MKLELGNIFIKNVEFGEKTEVKDGVLYISSEEIEKIVLEDERIVSVNVELARPGESIRIAPVKDVIEPRVKIGDESKIFPGIINKVKTVGSGRTHVLLGACVVTCGNIVGFQEGVIDMSGPTAKYTPFSKTNNICIVIKAKDGIDTHDYEEAARIAGLKIGAYVGEAGREVEPDEVIVYETKPLLKQVKEYPDLPTVAYVHMLQSQGLLHDTYYYGVDAKQIVPTFMYPTEIMDGAIISGNCVAPCDKVTTFHHLNNPVIHDLYKRHGKDLNFIGVILTNENVFLVDKERSSDMVAKLIEFLGVDGVLVTEEGYGNPDTDLMMNCRKCSEVGANVVLITDEFPGKDGKSQSIADATKEADAVVSCGQGNLVVHFPAMEKIIGTLDYVEMMIGGYKGCLNEDGSMDAELQIIIASTIANGYNHLTARYY” stands “failed”; under “MKLERKNSGIIFLIFGVVFVLNALNPVMELLYIKAKGEIAEAKIVAYDFIQRSSRSGRGSSYKYIPIIEFFDGKEIVQVPVTMNSLNEELDIIGLDVKVSYLKNTPSKVIIDDKLFWLYEISNSLVVVGSFLLMVMLSQMSVETYRGRELTFNVPTKNKIIFLISGLPGVIGTFLSFYYGFITLKYNGLGFTSGTLILSLLIIGVYLLGIVNFLKIKNNYWG”, “failed”. Consider “MKLIAVLNLLNQLSNKNSLEEYLNGVIDFLSGWTGCENIGIRVLREAGLAPYVVHRGFDKDFIASESCISVEGDECVCLRVLKQQFKSEDQDHISAAGTYYAPNFYRYVEELREDQLLNFRGLCAHKQFKSLAVIPLLHQGKVVGAIHIADIKDGVFSEEDIHFIETIRPLVAEAIYRHNLEKALEHHHHHH”, for which the protein production entry was “failed”. Under “MKLIVVTTPTFFVEEDKIITALFEEGLDILHLRKPETPAMYSERLLTLIPEKYHRRIVTHEHFYLKEEFNLMGIHLNARNPSEPHDYAGHVSCSCHSVEEVKNRKHFYDYVFMSPIYDSISKVNYYSTYTAEELREAQKAKIIDSKVMALGGINEDNLLEIKDFGFGGAVVLGDLWNKFDACLDQNYLAVIEHFKKLKKLADLEHHHHHH” stands “not failed”. For the sequence “MKLKRKILALLMAALLAVSLAGCGQTSQAPANPPAAPEAGTPTERTVTDMAGRTVTLPAEVKTVGTFGSIGVLNAFVETLSAGERLANEGSPSFVKSPTWEKYQYQFTPHIKNLKPFQGADSELLMENILAAKPDVCLTMSADLTEQLEKQGLNVVQLSWTKTEDVKECITLLGEVLNQQEVAADYLKYFDDMLAKAADLTKDIKDADKKTVVYGNVSKFSQPHVIAEWWIDKAGGISVTSEAMTKANKESLTYTLEDLLKWNPDVMFVASAAEKKEVLADARLGEITAVKNGAIYIVPRIAHVWGNRTTEQPLTIMWAMNKLYPEIVTDSQLAEDISYFYSHFFKYDFNADQLKEIMGK”, the protein production entry was “failed”. The result for “MKLKTEPLSNEKNFSKVKKALSSIPQVRDQKFEEETNTVTIKVVCCSPEKVMDKLCSKGRGAIKLIETIDPAKHVAQKPKEPEKPKEAEKPKEPEKPKPAAAPAQGDPSSQRVTHGYNPPPMMGHPVPWSDGPNYGWSRPNGYDERPIYNSYGGWQPPPSQYGGRSHYEEEQPSCSIM” reads “failed”; that for “MKLLLIGYGNVGKAFRRLLHEKKDNYPILQGVEIAGIITRQGLMVGDKENFSPDKQLTVLEAIDYINPDVIVDMSVPNYKDGEPSVSAYIKALSRKIHVITVNKAPLALKFREIFEVAEKTGAKIGFQGTVMSGTPSINLFRIQPVAEVSRIRGILNGTTNYILTRIYEGLSFNEALKEAKEKGYAEEDPTLDLNGFDAAAKLTILSNFIMNRSLKLGDFKFKGITEITNEEIRRAKSEGKKIKLIAYADNYVVQVSPQIIGPQDPLYYIDGVENALEIQNEIQRIIIRGPGAGPINAAYGALSDLVLLLEGCL”, “failed”; that for “MKLLSQLLLFTSLTFPLSSFAALGEHPIILIHGFQAGQLQTKPNHDAVVADGKNYWQDYWLAKADDRIDWPSQERVAGKISTDYIWPKLQELSKNNTCKNGCILVTHSTGDLVARHLLDNQENW”, “failed”. The result for “MKLNVKMLSVTLGLFTSHAFAHTVYENARIYTVNDQQPTASVLVVEQGKIIYVGGNDGAKQFKATAAELFDLEGKTVLPGFIESHAHPATVAVMQAGDFVYVDGAASLTQILNQLKDYLAAHPKANYLLAQGFNVASLGLPQGALPTAADLDTVSTSIPIVVYDSGMHAGWANSAALKIAHVDANTPDPISGKHYFERDNKGNPTGFMHESAMHNVVDAQQFNTVENVAEQLKPILNTYHSLGFTAITDVGDTFSTTTAAIARLNDQGKLKVYYQRGYFYDAAKSTEQNIASLKALREKYNRGNLSMNLYKLFMDGTIEMDSGAMFKPYPNGNIVEPFLSQKQINDNVAAALKAGFSVHVHAIGDKAQQSILDAFEASKNINPHLARVIAHNQVFEPQGVQKFAAMKDNLFLQTTPNWTVLNEKDETKTKIGSDAYNHQYLLGQVVREGVAVTFGSDYPANTFDAVNPFSQMYHAIKRGQPNAGYLPPTDAAMTLDQSLRAYTINGAKQLGISDITGSLEKGKNADFIIVDTDIGSVDLEKLKNTNVLATYFKGEKVY” reads “failed”.
